# Reference: article PMC8809517, “Cofactor-independent RNA editing by a synthetic S-type PPR protein”
# T1: GFP-9S library array, motif 4 ND N98T;D124L (synthetic construct, N98T;D124L)
# T1 chain: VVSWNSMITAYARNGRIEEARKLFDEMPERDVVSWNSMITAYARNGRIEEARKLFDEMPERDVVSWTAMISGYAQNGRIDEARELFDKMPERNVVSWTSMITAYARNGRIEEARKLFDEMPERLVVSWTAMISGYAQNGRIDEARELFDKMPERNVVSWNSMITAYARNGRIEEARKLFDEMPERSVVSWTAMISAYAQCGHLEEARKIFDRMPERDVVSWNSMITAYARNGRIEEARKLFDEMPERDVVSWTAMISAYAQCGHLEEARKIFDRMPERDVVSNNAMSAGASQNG
# T2: GFP-9S library array, motif 4 ND N98C;D124C (synthetic construct, N98C;D124C)
# T2 chain: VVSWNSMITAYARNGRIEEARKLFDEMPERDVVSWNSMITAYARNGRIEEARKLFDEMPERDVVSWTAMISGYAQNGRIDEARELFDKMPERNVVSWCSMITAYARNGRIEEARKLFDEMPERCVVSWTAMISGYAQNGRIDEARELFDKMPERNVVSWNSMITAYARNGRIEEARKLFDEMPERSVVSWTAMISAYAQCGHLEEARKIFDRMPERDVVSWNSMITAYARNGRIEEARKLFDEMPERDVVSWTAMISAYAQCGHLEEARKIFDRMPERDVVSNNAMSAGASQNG
# T3: GFP-9S library array, motif 4 ND N98C;D124A (synthetic construct, N98C;D124A)
# T3 chain: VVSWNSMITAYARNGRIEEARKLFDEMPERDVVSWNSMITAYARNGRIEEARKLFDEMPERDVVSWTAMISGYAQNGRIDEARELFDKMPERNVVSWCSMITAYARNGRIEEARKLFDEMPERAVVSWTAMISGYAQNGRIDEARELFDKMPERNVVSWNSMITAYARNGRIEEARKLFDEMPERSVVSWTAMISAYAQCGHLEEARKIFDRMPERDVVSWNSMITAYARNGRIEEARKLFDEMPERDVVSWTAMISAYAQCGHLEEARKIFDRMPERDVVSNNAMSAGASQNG
# T4: GFP-9S library array, motif 4 ND N98M;D124Y (synthetic construct, N98M;D124Y)
# T4 chain: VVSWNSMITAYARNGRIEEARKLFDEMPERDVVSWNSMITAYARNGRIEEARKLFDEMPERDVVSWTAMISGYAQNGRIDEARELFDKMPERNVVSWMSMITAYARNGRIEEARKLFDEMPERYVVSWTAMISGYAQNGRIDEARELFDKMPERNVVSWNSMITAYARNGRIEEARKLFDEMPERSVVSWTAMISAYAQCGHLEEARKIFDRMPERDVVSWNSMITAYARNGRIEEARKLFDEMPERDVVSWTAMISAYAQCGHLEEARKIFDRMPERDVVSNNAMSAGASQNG
# T5: GFP-9S library array, motif 4 ND N98H;D124Q (synthetic construct, N98H;D124Q)
# T5 chain: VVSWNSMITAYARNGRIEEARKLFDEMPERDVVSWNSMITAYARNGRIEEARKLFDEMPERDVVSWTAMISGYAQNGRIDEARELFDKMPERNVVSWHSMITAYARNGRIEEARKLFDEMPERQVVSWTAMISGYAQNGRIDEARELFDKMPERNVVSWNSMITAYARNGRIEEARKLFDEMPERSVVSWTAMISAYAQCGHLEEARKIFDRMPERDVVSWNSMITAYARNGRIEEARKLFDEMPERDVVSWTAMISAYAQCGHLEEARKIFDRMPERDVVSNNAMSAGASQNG
# Experiments:
# Assay in all cases: high-throughput RNA pulldown from lysate on Ni-NTA beads; HRP: 50 mM Tris pH 8, 150 mM NaCl, 1 mM beta-mercaptoethanol, 50 ug/ml BSA, 3 ug/ml yeast RNA, 0.5% heparin; ITC and FP: Tris pH 8, 200 mM KCl, 5% glycerol; MST: 50 mM Tris pH 8, 200 mM NaCl, 1 mM DTT, BSA, heparin, 0.05% Tween 20
# Conditions in all cases: tags: N-terminal His-eGFP
# [1] = target: T1, GFP-9S library array, motif 4 ND …
# [2] = target: T2, GFP-9S library array, motif 4 ND …
# [3] = target: T3, GFP-9S library array, motif 4 ND …
# [4] = target: T4, GFP-9S library array, motif 4 ND …
# [5] = target: T5, GFP-9S library array, motif 4 ND …
binder,measurement,setting,value
AUUACACGUGA (ssRNA) [Cy5-rpoA],Kd,[1]; label: 5' Cy5,120 nM
same,Kd,[2]; label: 5' Cy5,264 nM
same,Kd,[3]; label: 5' Cy5,114 nM
same,Kd,[4]; label: 5' Cy5,216 nM
same,Kd,[5]; label: 5' Cy5,68.7 nM
AUUAGACGUGA (ssRNA) [Cy5-rpoA-G],Kd,[1]; label: 5' Cy5,120 nM
same,Kd,[2]; label: 5' Cy5,70.5 nM
same,Kd,[3]; label: 5' Cy5,92.3 nM
same,Kd,[4]; label: 5' Cy5,167 nM
same,Kd,[5]; label: 5' Cy5,60.8 nM
AUUAAACGUGA (ssRNA) [IR-rpoA-A],Kd,[1]; label: 5' IRDye 800CW,169 nM
same,Kd,[2]; label: 5' IRDye 800CW,43.7 nM
same,Kd,[3]; label: 5' IRDye 800CW,98.2 nM
same,Kd,[4]; label: 5' IRDye 800CW,488 nM
same,Kd,[5]; label: 5' IRDye 800CW,82.6 nM
AUUAUACGUGA (ssRNA) [IR-rpoA-U],Kd,[1]; label: 5' IRDye 800CW,174 nM
same,Kd,[2]; label: 5' IRDye 800CW,243 nM
same,Kd,[3]; label: 5' IRDye 800CW,159 nM
same,Kd,[4]; label: 5' IRDye 800CW,682 nM
same,Kd,[5]; label: 5' IRDye 800CW,31.4 nM
